Source: US7558625B2, “Combined micro-channel generation and iontophoresis for transdermal delivery of pharmaceutical agents” (TransPharma Medical Ltd., priority 2004, dated 2009)

Columns and labels:
[1] = Transdermal delivery of hGH by ViaDerm and iontophoresis in rats, high/low hGH dose vs SC; format: in vivo; set-up: hGH plasma levels: unit not given here; details: for hGH plasma levels: Avg.
Procedure: In the present experiment a power supply (parallel connection instead of serial) was used in order to improve the power supply.
Human GH solution was prepared from a 12 mg Genotropin vial (Genotropin®, Pharmacia and Upjohn). The levels of hGH in serum were analyzed using Elisa kit (DSL Inc. Webster Tex., USA). HPLC was used to quantitate SC solution.
ViaDerm operating parameters: Burst length—700 μsec; Voltage—330V; Number of bursts—2; 2 applications on the same skin area (150 micro-channels/cm^2); Two application sites (total area 2.8 cm^2); Without current limitation; 80 μm diameter electrode of the electrode arrays.
Iontophoresis application parameters: Current density 0.64 mA/cm^2 (total 1.8 mA). Current elevation time (from 0-max) 20 seconds. Current application time 8 hours.

[2] = Transdermal delivery of hGH by ViaDerm and iontophoresis in anesthetized rats, serum hGH (Elisa); format: in vivo; details: for Serum hGH levels: ViaDerm, Avg.; for AUC: serum hGH, 1.5 mg hGH patch
Procedure: Two groups of rats were tested. […] One group was connected to a power supply (constructed in house) and the other was not. The hGH loaded patch was connected to the negative pole of the power supply.
Rats (males, 300-325 gr, Sprague Dawley) were kept under anesthesia throughout the experiment. The following experimental groups were investigated: • Group 1—Passive delivery: 3 rats were treated with ViaDerm on two adjacent sites (total area 2.8 cm^2) over which the iontophoresis patch was placed. The reference electrode assembly was placed on a shaved intact skin on the back of the anal. The power supply was not turned on. • Group 2—Iontophoresis delivery: 3 rats were treated with ViaDerm on two adjacent sites (total area 2.8 cm^2) over which the iontophoresis patch was placed. The reference electrode assembly was placed on a shaved intact skin on the back of the animal. The power supply was turned on.
ViaDenm operating parameters: Burst length—700 μsec; Voltage—330V; Number of bursts—2; Two applications on the same skin area (150 pores/cm^2); Without current limitation; 80 μm diameter electrode arrays; Current density used: 0.18 mA/cm^2.
To detect hGH levels in serum—Elisa kit (DSL Inc. Webster, Tex., USA) was used.

[3] = ViaDerm + Iontophoresis off 15 mg
[4] = ViaDerm + Iontophoresis on 1.5 mg
[5] = ViaDerm + Iontophoresis on 15 mg

hGH: human growth hormone (Genotropin, Pharmacia and Upjohn)
hGH plasma levels ([1]; 1.5 mg hGH, Iontoph. on, +VD, 0.0 hr): 0.1
hGH plasma levels ([1]; 1.5 mg hGH, Iontoph. on, +VD, 1.0 hr): 225.1
hGH plasma levels ([1]; 1.5 mg hGH, Iontoph. on, +VD, 2.0 hr): 346.3
hGH plasma levels ([1]; 1.5 mg hGH, Iontoph. on, +VD, 3.0 hr): 617.3
hGH plasma levels ([1]; 1.5 mg hGH, Iontoph. on, +VD, 4.0 hr): 444.5
hGH plasma levels ([1]; 1.5 mg hGH, Iontoph. on, +VD, 6.0 hr): 184.3
hGH plasma levels ([1]; 1.5 mg hGH, Iontoph. on, +VD, 8.0 hr): 111.3
hGH plasma levels ([1]; 15 mg hGH, Iontoph. off, +VD, 0.0 hr): 0.1
hGH plasma levels ([1]; 15 mg hGH, Iontoph. off, +VD, 1.0 hr): 89.7
hGH plasma levels ([1]; 15 mg hGH, Iontoph. off, +VD, 2.0 hr): 178.7
hGH plasma levels ([1]; 15 mg hGH, Iontoph. off, +VD, 3.0 hr): 283.7
hGH plasma levels ([1]; 15 mg hGH, Iontoph. off, +VD, 4.0 hr): 389.4
hGH plasma levels ([1]; 15 mg hGH, Iontoph. off, +VD, 6.0 hr): 573.1
hGH plasma levels ([1]; 15 mg hGH, Iontoph. off, +VD, 8.0 hr): 873.4
hGH plasma levels ([1]; 15 mg hGH, Iontoph. on, +VD, 0.0 hr): 0.0
hGH plasma levels ([1]; 15 mg hGH, Iontoph. on, +VD, 1.0 hr): 504.8
hGH plasma levels ([1]; 15 mg hGH, Iontoph. on, +VD, 2.0 hr): 958.5
hGH plasma levels ([1]; 15 mg hGH, Iontoph. on, +VD, 3.0 hr): 2011.6
hGH plasma levels ([1]; 15 mg hGH, Iontoph. on, +VD, 4.0 hr): 2204.9
hGH plasma levels ([1]; 15 mg hGH, Iontoph. on, +VD, 6.0 hr): 1802.0
hGH plasma levels ([1]; 15 mg hGH, Iontoph. on, +VD, 8.0 hr): 1244.1
hGH plasma levels ([1]; 15 mg hGH, Iontoph. on, intact, 0.0 hr): 0.1
hGH plasma levels ([1]; 15 mg hGH, Iontoph. on, intact, 1.0 hr): 1.9
hGH plasma levels ([1]; 15 mg hGH, Iontoph. on, intact, 2.0 hr): 7.2
hGH plasma levels ([1]; 15 mg hGH, Iontoph. on, intact, 3.0 hr): 8.3
hGH plasma levels ([1]; 15 mg hGH, Iontoph. on, intact, 4.0 hr): 9.2
hGH plasma levels ([1]; 15 mg hGH, Iontoph. on, intact, 6.0 hr): 5.4
hGH plasma levels ([1]; 15 mg hGH, Iontoph. on, intact, 8.0 hr): 4.7
AUC ([1]; Intact + Iontophoresis 15 mg): 47 ng·h/mL
Bioavailability ([1]; Intact + Iontophoresis 15 mg): 0.05%
hGH plasma levels ([1]; S.C. 150 ug/0.2 ml hGH, 0.0 hr): 0.1
hGH plasma levels ([1]; S.C. 150 ug/0.2 ml hGH, 1.0 hr): 153.0
hGH plasma levels ([1]; S.C. 150 ug/0.2 ml hGH, 2.0 hr): 156.8
hGH plasma levels ([1]; S.C. 150 ug/0.2 ml hGH, 3.0 hr): 127.8
hGH plasma levels ([1]; S.C. 150 ug/0.2 ml hGH, 4.0 hr): 120.1
hGH plasma levels ([1]; S.C. 150 ug/0.2 ml hGH, 6.0 hr): 75.3
hGH plasma levels ([1]; S.C. 150 ug/0.2 ml hGH, 8.0 hr): 43.4
AUC ([1]; SC 150 ug): 812 ng·h/mL
Bioavailability ([1]; SC 150 ug (reference)): 100%
AUC [1, 3]: 3156 ng·h/mL
Bioavailability [1, 3]: 3.9%
AUC [1, 4]: 2336 ng·h/mL
Bioavailability [1, 4]: 28.8%
AUC [1, 5]: 11630 ng·h/mL
Bioavailability [1, 5]: 14.3%
clinical observations at the site of the patch application ([1]; abdomen, current on 0.64 mA/cm^2 for 8 hours): Black burning marks (3rd degree burns)
clinical observations at the site of the patch application ([1]; animals in which the power supply was off): No burn marks
hGH delivery by iontophoresis alone ([1]; intact skin, 15 mg hGH): does not cause hGH delivery
AUC of ViaDerm and iontophoresis versus ViaDerm only (passive delivery) [2]: 3.5 fold
skin observation after removal of the iontophoretic patches ([2]; 0.18 mA/cm^2, end of experiment): burn marks were seen at the contact area of the electrode
duration of hGH delivery ([2]; ViaDerm treated skin): more than 6 hours
Serum hGH levels ([2]; Passive Patch 1.5 mg hGH, 0 h): 0.1 ng/mL
Serum hGH levels ([2]; Passive Patch 1.5 mg hGH, 0.75 h): 5.1 ng/mL
Serum hGH levels ([2]; Passive Patch 1.5 mg hGH, 1.5 h): 14.0 ng/mL
Serum hGH levels ([2]; Passive Patch 1.5 mg hGH, 2.25 h): 23.3 ng/mL
Serum hGH levels ([2]; Passive Patch 1.5 mg hGH, 3 h): 40.8 ng/mL
Serum hGH levels ([2]; Passive Patch 1.5 mg hGH, 6 h): 34.0 ng/mL
Serum hGH levels ([2]; Patch 1.5 mg hGH + Iontophoresis, 0 h): 0.1 ng/mL
Serum hGH levels ([2]; Patch 1.5 mg hGH + Iontophoresis, 0.75 h): 22.7 ng/mL
Serum hGH levels ([2]; Patch 1.5 mg hGH + Iontophoresis, 1.5 h): 61.1 ng/mL
Serum hGH levels ([2]; Patch 1.5 mg hGH + Iontophoresis, 2.25 h): 109.8 ng/mL
Serum hGH levels ([2]; Patch 1.5 mg hGH + Iontophoresis, 3 h): 128.9 ng/mL
Serum hGH levels ([2]; Patch 1.5 mg hGH + Iontophoresis, 6 h): 175.1 ng/mL
AUC ([2]; ViaDerm and iontophoresis): 637 ng·h/mL
AUC ([2]; ViaDerm only (passive delivery)): 182 ng·h/mL
